# US12077763B2, “RNA-based control of powdery mildew” (Greenlight Biosciences, Inc., priority 2021, dated 2024)
# System: E. necator
# Experiment: Leaf disc assay, dry inoculum (settling tower), decrease in disease severity / hyphal growth (Example 2)
# Conditions: decrease in disease severity (hyphal growth) relative to untreated control, value ± SE; for % decrease =/− SE TP1: time point 1 (untreated control hyphal growth ≥50%); for % decrease =/− SE TP2: time point 2
Molecule,% decrease =/− SE TP1 [%],% decrease =/− SE TP2 [%]
GS3627 (nucleic acid) sense: CUGUUUGGUCUCCUCUGCUUUGGACUAGUUUCAACUGCUCCAGCACCAAACUCACCUUGGCAUCUACGAAGCCGACAGGAAGGUGGUGGCUACUAUGGCCAACCAUCGAAUGGUGAUGGAAGUGUGUAUCCACCUUCAUCUGGUACAGGUGGCUUUCUAUCGCCAACUGCUACGAGCGGUUAUCCGUCUGCAACUGGAACUGGCGGCUAUUCAUCUCCAUCGGGCACCGGUGGCUACCCGUCUGCAACAGGUACAGGUGGUUACGCAUCGCCAACAGGGACCAGUUACCCUACACCUAC antisense: GUAGGUGUAGGGUAACUGGUCCCUGUUGGCGAUGCGUAACCACCUGUACCUGUUGCAGACGGGUAGCCACCGGUGCCCGAUGGAGAUGAAUAGCCGCCAGUUCCAGUUGCAGACGGAUAACCGCUCGUAGCAGUUGGCGAUAGAAAGCCACCUGUACCAGAUGAAGGUGGAUACACACUUCCAUCACCAUUCGAUGGUUGGCCAUAGUAGCCACCACCUUCCUGUCGGCUUCGUAGAUGCCAAGGUGAGUUUGGUGCUGGAGCAGUUGAAACUAGUCCAAAGCAGAGGAGACCAAACAG,30 ± 3,29 ± 6
GS3626 (nucleic acid) sense: GCAGCUUUGUAACGUACCUCUCGUCCUGUUUGGUCUCCUCUGCUUUGGACUAGUUUCAACUGCUCCAGCACCAAACUCACCUUGGCAUCUACGAAGCCGACAGGAAGGUGGUGGCUACUAUGGCCAACCAUCGAAUGGUGAUGGAAGUGUGUAUCCACCUUCAUCUGGUACAGGUGGCUUUCUAUCGCCAACUGCUACGAGCGGUUAUCCGUCUGCAACUGGAACUGGCGGCUAUUCAUCUCCAUCGGGCACCGGUGGCUACCCGUCUGCAACAGGUACAGGUGGUUACGCAUCGCCAACAGGGACCAGUUACCCUACACCUACUGGAGGUUACUCUGAAGAGCCCUAC antisense: GUAGGGCUCUUCAGAGUAACCUCCAGUAGGUGUAGGGUAACUGGUCCCUGUUGGCGAUGCGUAACCACCUGUACCUGUUGCAGACGGGUAGCCACCGGUGCCCGAUGGAGAUGAAUAGCCGCCAGUUCCAGUUGCAGACGGAUAACCGCUCGUAGCAGUUGGCGAUAGAAAGCCACCUGUACCAGAUGAAGGUGGAUACACACUUCCAUCACCAUUCGAUGGUUGGCCAUAGUAGCCACCACCUUCCUGUCGGCUUCGUAGAUGCCAAGGUGAGUUUGGUGCUGGAGCAGUUGAAACUAGUCCAAAGCAGAGGAGACCAAACAGGACGAGAGGUACGUUACAAAGCUGC,3 ± 7,26 ± 7
GS3672 (nucleic acid) sense: UUCCUGGACAACCAGUAAAGAAAAAGUUGGGACCAAAUCAAACACAAGAAAUGAUAAAGUUUGCAUGUCGAACACCUGCCCAAAAUGCUACCUCAGUUGUUCAAGAUGGAAGACAUGUUUUGAGCCUGAACUCUAGCAACCCUGUUCUAUCUGAAUUUGGCCUUCAAGUAGGUCAGUCUUUGAUAUCAGUAAAUGCUCGAGUACUACAACCACCGUCUGUGAGAUAUGGAGGAUCUGGAAGUCUAUCACCGAGAAAUGGUAGUUGGAAUAUGAUUAACGUGAGAUUUCAUACACCCGCCAAAAUCGGACCAUGGACUUGUAUUAUGUUUCCCACCCAAGGAAGAAAUGACAUUGAUGUUGGUAAUAUGAGAUCACAUGUCACUGCUUUCCAAGCACA antisense: UGUGCUUGGAAAGCAGUGACAUGUGAUCUCAUAUUACCAACAUCAAUGUCAUUUCUUCCUUGGGUGGGAAACAUAAUACAAGUCCAUGGUCCGAUUUUGGCGGGUGUAUGAAAUCUCACGUUAAUCAUAUUCCAACUACCAUUUCUCGGUGAUAGACUUCCAGAUCCUCCAUAUCUCACAGACGGUGGUUGUAGUACUCGAGCAUUUACUGAUAUCAAAGACUGACCUACUUGAAGGCCAAAUUCAGAUAGAACAGGGUUGCUAGAGUUCAGGCUCAAAACAUGUCUUCCAUCUUGAACAACUGAGGUAGCAUUUUGGGCAGGUGUUCGACAUGCAAACUUUAUCAUUUCUUGUGUUUGAUUUGGUCCCAACUUUUUCUUUACUGGUUGUCCAGGAA,34 ± 4,26 ± 7
GS3628 (nucleic acid) sense: UAGUUUCAACUGCUCCAGCACCAAACUCACCUUGGCAUCUACGAAGCCGACAGGAAGGUGGUGGCUACUAUGGCCAACCAUCGAAUGGUGAUGGAAGUGUGUAUCCACCUUCAUCUGGUACAGGUGGCUUUCUAUCGCCAACUGCUACGAGCGGUUAUCCGUCUGCAACUGGAACUGGCGGCUAUUCAUCUCCAUCGGGCACCGGUGGCUACCCGUCUGCAACAGGUACAGGUGGUUACGCAUCGCCAA antisense: UUGGCGAUGCGUAACCACCUGUACCUGUUGCAGACGGGUAGCCACCGGUGCCCGAUGGAGAUGAAUAGCCGCCAGUUCCAGUUGCAGACGGAUAACCGCUCGUAGCAGUUGGCGAUAGAAAGCCACCUGUACCAGAUGAAGGUGGAUACACACUUCCAUCACCAUUCGAUGGUUGGCCAUAGUAGCCACCACCUUCCUGUCGGCUUCGUAGAUGCCAAGGUGAGUUUGGUGCUGGAGCAGUUGAAACUA,12 ± 2,7 ± 5
GS3625 (nucleic acid) sense: GUUUGCCUUUCCAAAUAUCCAUCAUGCAGCUUUGUAACGUACCUCUCGUCCUGUUUGGUCUCCUCUGCUUUGGACUAGUUUCAACUGCUCCAGCACCAAACUCACCUUGGCAUCUACGAAGCCGACAGGAAGGUGGUGGCUACUAUGGCCAACCAUCGAAUGGUGAUGGAAGUGUGUAUCCACCUUCAUCUGGUACAGGUGGCUUUCUAUCGCCAACUGCUACGAGCGGUUAUCCGUCUGCAACUGGAACUGGCGGCUAUUCAUCUCCAUCGGGCACCGGUGGCUACCCGUCUGCAACAGGUACAGGUGGUUACGCAUCGCCAACAGGGACCAGUUACCCUACACCUACUGGAGGUUACUCUGAAGAGCCCUACCACUAUAAAGGUGUCAAGCUAGGUC antisense: GACCUAGCUUGACACCUUUAUAGUGGUAGGGCUCUUCAGAGUAACCUCCAGUAGGUGUAGGGUAACUGGUCCCUGUUGGCGAUGCGUAACCACCUGUACCUGUUGCAGACGGGUAGCCACCGGUGCCCGAUGGAGAUGAAUAGCCGCCAGUUCCAGUUGCAGACGGAUAACCGCUCGUAGCAGUUGGCGAUAGAAAGCCACCUGUACCAGAUGAAGGUGGAUACACACUUCCAUCACCAUUCGAUGGUUGGCCAUAGUAGCCACCACCUUCCUGUCGGCUUCGUAGAUGCCAAGGUGAGUUUGGUGCUGGAGCAGUUGAAACUAGUCCAAAGCAGAGGAGACCAAACAGGACGAGAGGUACGUUACAAAGCUGCAUGAUGGAUAUUUGGAAAGGCAAAC,1 ± 2,0 ± 3
GS3623 (nucleic acid) sense: AGUUUCUUACGUUGUAGCGCCGAAGCUUCUCUAAGUUUAAUCUCUGAUGGAGAUAAAACGUUAUAUAUAGGCGUACCAACAGCAAUUGUCCCCUCUUUAAGUAGAUAUAACUUUCGCUUAUCUUUGUCUCGGUCAGUGCGGAAGUUUGUCCCAGCUUCUGUAAGUUUUACAGCUUUUUCUCGAUUAACUGCUCUUGACACUUGAAGUACGCGACCUUCUAUUGUGUAUAAGCCAUUCUUAUCAGCAGUUUCAUCCUCUAAAAUAGAGUUUUUAGCUUUAACAGCGUUUGCACCACUUUUGAAGGUACGAGGUGCACCAUGGUAACAAGAGUCCGCAUCUUCUUGUCUAUA antisense: UAUAGACAAGAAGAUGCGGACUCUUGUUACCAUGGUGCACCUCGUACCUUCAAAAGUGGUGCAAACGCUGUUAAAGCUAAAAACUCUAUUUUAGAGGAUGAAACUGCUGAUAAGAAUGGCUUAUACACAAUAGAAGGUCGCGUACUUCAAGUGUCAAGAGCAGUUAAUCGAGAAAAAGCUGUAAAACUUACAGAAGCUGGGACAAACUUCCGCACUGACCGAGACAAAGAUAAGCGAAAGUUAUAUCUACUUAAAGAGGGGACAAUUGCUGUUGGUACGCCUAUAUAUAACGUUUUAUCUCCAUCAGAGAUUAAACUUAGAGAAGCUUCGGCGCUACAACGUAAGAAACU,20 ± 3,
